From the nanobody polyreactivity screen of Harvey et al. (2022)

Experiment: yeast display, Sf9 membrane polyspecificity reagent, FACS + sequencing; frameworks hold sequencing errors
Method in brief: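 Using colony PCR, genes from sorted yeast display clones were amplified, then sequenced on MiSeq at 2 × 250 and filtered by CDR length. The clones had been stained with 10% biotinylated, detergent-solubilized Sf9 membrane reagent for 1 hour at 4 °C and sorted by FACS into low and high (top ~1%) gates on anti-HA and streptavidin fluorescence. Polyreactivity labels come from the gate of origin.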

| Sequence | polyreactivity (PSR sort gate) |
| --- | --- |
| QVQLVESGGGLVQAGGSLRLSCAASGSIFPWYAMGWYRQAPGKERELVAAITISGGSTHYADTVKGRFTISRDNAKYTVYLQMNSLKPEDTAVYYCATPRYPSYDYWGQGTQVTVSS | low polyreactivity |
| QVQLVESGGGLVQAGGSLRLSCAASGSIFPYAMGWYRQSPGKERELVAAITRSGASTYYADSVKGRFTISRDNAKNTVYLQMNSLKPEDTAVYYCAAYALRGVRYPYRVDFYYWGQGTQVTVSS | high polyreactivity |
| QVQLVESGGGLVQAGGSLRLSCAASGSIFPYAMGWYRQSPGKQRQLVAVISWSGASTYYADSVKGRFTISRDNAKNTVDLQMNSLKPEDTAVYYCAVYRYYKLVHLYGYDYWGQGTQVTVSS | high polyreactivity |
| QVQLVESGGGLVQAGGSLRLSCAASGSIFPYNAMGWYRQAPGKEREFVAAITYSGGSTYYADSVKGRFTISRDNAKNTVYLQMNSLKPEDTAVYYCAAGYSSRGSRDGYWGQGTQVTVSS | low polyreactivity |
| QVQLVESGGGLVQAGGSLRLSCAASGSIFPYNVMGWYRQAPGKERELVAAISTRGGRTYYADSVKGRFTISRDNAKNTVYLQMNSLKPEDTAVYYCNTVVLRYLYNYWGQGTQVTVSS | high polyreactivity |
| QVQLVESGGGLVQAGGSLRLSCAASGSIFQDYAMGWSRQAPGKERELVAVITRGGSKYYADSVKGRFTISRDNAKNTVYLQMNSLKPEDTAVYYCNTRRGRGGKYDYWGHGTQVTVSS | low polyreactivity |
| QVQLVESGGGLVQAGGSLRLSCAASGSIFQGNAMGWYRQAPGKERELVAAITYSGGSTYYADSVKGRFTISRDNAKNTVYLQMHSLKREDTAVYYCAAFFPSDLVDGYNYWGQGTQVTVSS | low polyreactivity |
| QVQLVESGGGLVQAGGSLRLSCAASGSIFQGNVMGWSRQAPGKERELVAAISSGGRTYYADSVKGRFTISRDNAKNTVYLQMNSLKPEDTAVYYCAASWLTSYAYIMYYWGQGTQVTVSS | high polyreactivity |
| QVQLVESGGGLVQAGGSLRLSCAASGSIFQIYAMGWYRQAPGKESELVATINRGDNTYYADSVKGRFTISRDNAKNTVYLQMHSLTPEDSAVYYCNVDRQVITGRYIGDYWGQGTLVTVSS | low polyreactivity |
| QVQLVESGGGLVQAGGSLRLSCAASGSIFQPYAMGWYRQAPGKERELVAAISIGDSTNYADSVKGRFTISRDNAKNTVYLQMNSLKPADTAVYYCNTTGEYYDYWGQATQVTVSS | low polyreactivity |
| QVQLVESGGGLVQAGGSLRLSCAASGSIFQQYAMGWYRQAPGKERELVAAISWGDGSTYYADSVKGRFTISRDNAKNTVYLQMNSLKPEDTAVYYCNAYASAPLWSLEDDYWGQGTQVTVSS | low polyreactivity |
| QVQLVESGGGLVQAGGSLRLSCAASGSIFQQYAMGWYRQAPGKERELVAAISYSGGTTYYADSVKGRFTISRDNAKNTVYLQMNSLKPEDTAVYYCAAYYPSGSYDYYWGQGTQVTVSS | low polyreactivity |
| QVQLVESGGGLVQAGGSLRLSCAASGSIFQRNAMGWYRQAPGKERELVAAISRSGGRTYYADSVKGRFTISRDNAKNTVYLQMNSLKPEDTAVYYCAADSPYIQNRFEYWGQGTQVTVSS | high polyreactivity |
| QVQLVESGGGLVQAGGSLRLSCAASGSIFQRYAMGWYRQAPGKEREFVAAISGRGGSTYYADSVKGRFTISRDNAKNTVYLQMNSLKPEDTAVYYCADDSSRFYGRPRYYYWGQGTQVTVSS | high polyreactivity |
| QVQLVESGGGLVQAGGSLRLSCAASGSIFQRYAMGWYRQAPGKERELVAGINWSGGRTYYADSVKGRFTISRDNAKNTVYLQMNSLKPEDTAVYYCAKPVERYTYSLYQQYDYWGQGTQVTVSS | high polyreactivity |
| QVQLVESGGGLVQAGGSLRLSCAASGSIFQSNAMGWYRQAPGKEREFVAAITASGGRTYYADSVKGRFTISRDNAKNTDYLLMNSLKPEDTAVYFCAARGRYYWGGRSYDYWGHGTQVTVSS | high polyreactivity |
| QVQLVESGGGLVQAGGSLRLSCAASGSIFQSNAMGWYRQAPGKERELFAAISWNTGSTYADSVKGRFTISRDNAKNTVYLQMNSLKPEDTAVYYCAADRSHAYYRKNRVDYWGQGTQVTVSS | low polyreactivity |
| QVQLVESGGGLVQAGGSLRLSCAASGSIFQTYAMGWYRQAPGKERELVAAIDGGDTTNYADSVKGRFTISRDNAKNTVYLQMNSLKPEDTAVYYCNADWGQVTQVTVSS | low polyreactivity |
| QVQLVESGGGLVQAGGSLRLSCAASGSIFQWNAMGWYRQAPGKERELVAAISTRGGRTYYADSVKGRFTISRDNAKNTDYLQMNSLKPEDTAVYYCAKQYGSYGRYYKYYYWGQGTQVTVSS | high polyreactivity |
| QVQLVESGGGLVQAGGSLRLSCAASGSIFQYYAMGWYRQAPGKERELVAAISSGGRTNYADSVKGRFTISRDNAKNTDYLQMNSLKPEDTAVYYCAAARYYYQVYRWEYDYWGQGTQVTVSS | high polyreactivity |
| QVQLVESGGGLVQAGGSLRLSCAASGSIFRANTMGWYRQAPGKERELVAVISSGGRTYYADSVKGRFTISRDNAKNTVYLQMNSLKPEDTAVYYCAAKRGYGYGYWGQGTQVTVSS | high polyreactivity |

| Sequence | polyreactivity (PSR sort gate) |
| --- | --- |
| QVQLVESGGGLVQAGGSLRLSCAASGSIFRAYAMGWYRQAHGKERELVAAITGNGARTYYADSVKGRFTISRDNAKNTVYLQMNSLKPEDTAVYYCAKRGNRQHRWWYDYWGQGTQVTVSS | low polyreactivity |
| QVQLVESGGGLVQAGGSLRLSCAASGSIFRAYAMGWYRQAPGKERELVAAITNGGGTTYYADSVKGRFTISRDNAKNTVYLQMNSLKPEDTAVYYCAADGAYSYASYDYWGQGTQVTVSS | low polyreactivity |
| QVQLVESGGGLVQAGGSLRLSCAASGSIFRAYAMGWYRQAPGKERELVADISRSGGSTYYADSVKGRFTISRDNAKNTVYLQLNSLKPEDTAVYYCAAVFYLYSNLYGEYDYWGQGTQVTVSS | low polyreactivity |
| QVQLVESGGGLVQAGGSLRLSCAASGSIFRAYAMGWYRQAPGKERELVADISRSGGSTYYADSVKGRFTISRDNAKNTVYLQMNSLKPEDTAVYYCAAVFYLYSNLYGEYDYWGQGTQVTVSS | low polyreactivity |
| QVQLVESGGGLVQAGGSLRLSCAASGSIFRDNTMGWYRQAPGKERELVAAISYSGGGTYYADSVKGRVTISRDNAKNTVYLQMNSLKPEDTAVYYCAKRTYPWYYREIPYGYWGQGTQVTVSS | high polyreactivity |
| QVQLVESGGGLVQAGGSLRLSCAASGSIFREYVMGWYRQAPGKEREFVAAISVSGGSTNYADSVKGRFTISRDNAKNTVYLQMNSLKPEDTAVYYCNADGVLTGYSRGGWYYWGQGTQVTVSS | low polyreactivity |
| QVQLVESGGGLVQAGGSLRLSCAASGSIFRFNPMGWYRQAPGKERELVAAISWSGGLTYYADSVKGRFTISRDNAKNTVSLQMNSLKPEDTAVYYCNAGRRYPLRYDYWGQGTQVTVSS | high polyreactivity |
| QVQLVESGGGLVQAGGSLRLSCAASGSIFRFNVMGWYRQAPGKERELVAAITRGDSTNYADSVKGRFTISRDNAKNTVYLQMNSLKPEDTAVYYCAAGYYYYLRDHDYWGQGTQVTVSS | low polyreactivity |
| QVQLVESGGGLVQAGGSLRLSCAASGSIFRFYAMGWYIQAPGKERELVAAIRFSGGNTYYADSVKGRFTISCDNAKNTVYLQMNSLKPEDTAVYYCAKYRRVKPKRYDYDYWGQGTQVTVSS | high polyreactivity |
| QVQLVESGGGLVQAGGSLRLSCAASGSIFRFYAMGWYRQAPGKERELVAAISSGGSTYYADSVKGRFTISRDNAKNTVYLQMKSLKPEDTAVYYCAHGFAQYGLDLDPGDYDYWGQGTQVTVSS | low polyreactivity |
| QVQLVESGGGLVQAGGSLRLSCAASGSIFRFYAMGWYRQAPGKERELVADISWRGGSTYYADSVKGRFTISRDNAKNTVYLQMNSLKPEDTAVSYCAAGYYRASTTVTHGGIEGDSWGQGTQVTVSS | high polyreactivity |
| QVQLVESGGGLVQAGGSLRLSCAASGSIFRFYAMGWYRQAPGQERELVAAITSGGSTNYADSVKGRFTISRDNAKNTVYLQMNSLKPEDTAVYYCAAVLVYFFIYDYWGQGTQVTVSS | low polyreactivity |
| QVQLVESGGGLVQAGGSLRLSCAASGSIFRGNALGWYRQAPGKERELVATITNGGSTNYADSVKGRFTISRDNAKNTVYLQMNSLKPEDTAVYSCNADHSYHIASTRHVDYWGQGNQVTVSS | low polyreactivity |
| QVQLVESGGGLVQAGGSLRLSCAASGSIFRGYALGWYRQAPGKERALVAAITKRGGNTYYADSVKGRFTISRDHAKNTVYLQMNSLKPEDTAVYYCAKAGWGKWVYAQMVYWGQGTQVTVSS | high polyreactivity |
| QVQLVESGGGLVQAGGSLRLSCAASGSIFRGYAMGWYRQAPGKERELVAAITSSGGSTNYADSVKGRFTISRDNAKNTVYLQMNSLKPEDTAVYYCAKAPGLWHLIQRMDYWGQVTQVTVSS | low polyreactivity |
| QVQLVESGGGLVQAGGSLRLSCAASGSIFRGYAMGWYRQAPGKERELVAVIRRTSGSTYYADSVKGRFTISRDNAKNTVYLQMNSLKPEDTAVYYCNTLRHSSYPSYGYWGQGTQVTVSS | high polyreactivity |
| QVQLVESGGGLVQAGGSLRLSCAASGSIFRGYAMGWYRQAPGKERELVAVITKSGGRTYYADSVKGRFTISRDNAKNTVYLQMNRLKPEDTAVYYCAKQPGSAYDYWGQGTQVTVSS | high polyreactivity |
| QVQLVESGGGLVQAGGSLRLSCAASGSIFRGYTMGWYRQAHGKERELVAAITSGDSTNYADSVKGRFTISRDNAKNTVYLQMKSLKPEDTAVYSCAAVTRFYTKYYWGQGTQVTVSS | high polyreactivity |
| QVQLVESGGGLVQAGGSLRLSCAASGSIFRGYTMGWYRQAPGKERELVAAITSGDSTNYADSVKGRFTISRDNAKNTVYLQMNSLKPEDTAVYYCAAGRLYLPYLVYRTYSFVGYYYWGQGTQVTVSS | high polyreactivity |
| QVQLVESGGGLVQAGGSLRLSCAASGSIFRGYTMGWYRQATGKERELVAAITSGDSTNYADSVKGRFTISRDNAKNTVYLQMNSLKPEDTAVYYCAAGRLYLPYLVYLTYSFVGYYYWGQGTQVTVSS | high polyreactivity |
